From patent US20070122406A1 come the findings set out here.

Assay [1] has as its target FcgRI. Put plainly: SPR.
In assay [2] the target is recombinant human Ep-CAM/Fc (R&D Systems) (human) (UniProt P16422). Kind of assay: SPR.
Assay [3] shares this target. Put plainly: SPR. This is another data set of the same source.
Assay [4] concerns the target extracellular domain of Ep-CAM (DIGylated) (UniProt P16422). Put plainly: antigen binding.

Where “and” joins values, the source holds several entries; their conditions need not be identical. Equal values may be shown once. Read-outs that look alike come from different tables or passages of the source.

Chain of recombinant human Ep-CAM/Fc (R&D Systems) (human) (P16422 24-265): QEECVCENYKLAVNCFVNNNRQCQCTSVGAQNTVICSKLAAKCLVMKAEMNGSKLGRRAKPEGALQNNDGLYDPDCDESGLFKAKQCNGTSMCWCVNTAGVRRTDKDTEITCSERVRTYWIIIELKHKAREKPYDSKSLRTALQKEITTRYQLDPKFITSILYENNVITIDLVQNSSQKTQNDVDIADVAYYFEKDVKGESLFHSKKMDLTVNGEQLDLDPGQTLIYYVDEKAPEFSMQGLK
Chain of extracellular domain of Ep-CAM (DIGylated) (P16422 24-265): as above

“H3.77_L3 S239D IgG1 (from UniProt P01857 1-330)” registered a Kd in assay [1] of 0.00137 µM.

Regarding “Wild-type IgG1 Ep-CAM antibody (17-1A H0L0 variable regions, chimeric human IgG1)”, the Kd in assay [2] came to 0.159 µM; in assay [3], 0.158 µM. In assay [4], the EC50 was 1.9E-07 ? and 2.5E-07 ?.
